The source of these data is patent US20210047411A1 (BIOND BIOLOGICS, published 2021).

For assay [1], the target named is T1, BSA conjugated CD28 stalk region dimeric peptide (human, not fully specified (C-terminus); also: hydrazide-terminated peptide conjugated to S-4FB modified BSA, dimeric peptide).
T1 construct: Dimeric peptide; dimerization confirmed on a non-denaturing gel; also called stalk region peptide; dimeric human CD28 stalk region peptide
T1 peptide: GKHLCPSPLFPGPSKPK
Description: ELISA, antigen on plate, serial dilution of antibody.

The target of assay [2] is Irrelevant control (Table 1). Put plainly: ELISA, same clone on the irrelevant control; unit not given.
The target of assay [3] is T2, recombinant human CD28 (R&D systems, Cat. No. 342-CD; human CD28-Ig chimera) (human, UniProt P10747 19-152).
T2 construct: extracellular domain; also called rhCD28; recombinant human sCD28; not shown: Ig (Fc) portion of the bought chimera; not specified
Put plainly: direct ELISA, recombinant human sCD28 on maxisorp plates.

In assay [4] the target is T2, recombinant human CD28 (R&D systems, …). Put plainly: direct ELISA, recombinant human sCD28 on maxisorp plates; reference CD28.2.

No end group written: not given here.

B1: clone M9 (antibody, V domains shown)
VH: DVKLVESGGGLVKLGGSLKLSCVASGFTFSSYYMSWVRQTPEKRLEWVATISDGGDNTYYAGTVTGRFTISRDFAKNTLYLQMNSLTSEDTAVYYCARIHWPYYFDSWGQGTTLTVSS
VL: QFVLSQSPAILSASPGEMLTMTCRASSSVSYMNWYQQKPGSSPKPWIYATSDLASGVPARFSGSGSGTSYSLTISRVEAEDAATYYCQQWSSHPPTFGGGTKLEIR
notes: also called 4G07; antibody M9
On to B1, for which the binding result in assay [1] is “binds”. This molecule registered an ELISA signal on irrelevant control in assay [2] of 0.06.

B2: Antibody #2 (antibody, mouse IgG2b, kappa, V domains shown)
VH: QVQLQQSGAELARPGASVKLSCKASGYTFTSYWMQWIKKRPGQGLEWIGAIYPGDGDTRYTQKFKGKATLTADKSSTTAYMQLSSLASEDSAVYFCARNYRYSSFGYWGQGTLVTVSA
VL: DIVMTQSPSSLTVTAGEKVTLSCKSSQSLLNSGNQKNYLTWYQQKPGQPPQLLIYWASTRESGVPDRFTGSGSGTDFTLTISSVQAEDLAVYYCQSDYSYPLTFGAGTKLELKR
Consider B2, for which the binding result in assay [3] is “binds”.

B3: Antibody #1 (antibody, mouse IgG1, kappa, V domains shown)
VH: QIQLVQSGPELKKPGETVKISCKASGYTLTNYGMNWVKQAPGKGLKWMGWINTYTGKPTYVDDFKGRFAFSLETSASTAYLQINNLKNEDTATYFCARGDANQQFAYWGQGTLVTVSA
VL: DIKMTQSPSSMYASLGERVTITCKASQDINSYLSWFQQKPGKSPKTLIYRANRLVDGVPSRFSGSGSGQDYSLTISSLEYDDMGIYYCLQYDEFPPTFGAGTKLELKR
As for B3, in assay [4], the “fold detection against CD28.2” value is about 10 fold.
